Data taken from patent publication US20200048654A1.

Biological target: rice XA21 receptor kinase (rice)
Experiment: cell-based or functional assay

Substance | EC50 of total ROS production over 3 h in Ubi::XA21 rice leaves
RaxX39-sY (peptide) | 0.07 µM
RaxX60-sY (full-length sulfated recombinant RaxX-His from Xoo PXO99) (ligand) | 0.1 µM
RaxX21-sY (peptide) | 0.02 µM
RaxX24-sY (peptide) | 0.03 µM
